The RNAGym collection of RNA variant scans (doi:10.7554/elife.80360)

B1: Hairpin Ribozyme (parent)
chain: GUCCUCUUUCACGUGCGCGUGAAAGAGAGAAGUGAACCAGAGAAACACACGUUGUGGUAUAUUACCUGGUA

Variants of: B1
Assay: self-cleavage, relative activity (ratio to wild type); higher = more cleavage; co-transcriptional

Row | Variant | self-cleavage
1 | G15U U62A | 0.2
2 | G15U U62C | 0.461
3 | G15U U62G | 0.189
4 | G15U U67A | 0.206
5 | G15U U70C | 0.999
6 | C16A A22G | 0.617
7 | C16A A23U | 0.727
8 | C16A A26G | 0.911
9 | C16A A28C | 0.569
10 | C16A A28G | 0.988
11 | C16A A28U | 0.611
12 | C16A A30C | 0.134
13 | C16A A30U | 0.154
14 | C16A A31U | 0.0142
15 | C16A A35C | 1.26
16 | C16A A35U | 0.789
17 | C16A A41G | 0.818
18 | C16A A41U | 1.3
19 | C16A A44C | 0.229
20 | C16A A45U | 0.176
21 | C16A A47G | 0.197
22 | C16A A49G | 0.389
23 | C16A A49U | 0.206
24 | C16A A59C | 0.213

Row | Variant | self-cleavage
25 | C16A A61U | 0.226
26 | C16A A64U | 0.14
27 | C16A A71U | 0.776
28 | C16A C18A | 1.14
29 | C16A C38U | 0.577
30 | C16A C48U | 0.0945
31 | C16A C65A | 0.845
32 | C16A C65G | 0.255
33 | C16A C66G | 0.249
34 | C16A G19C | 0.736
35 | C16A G25U | 0.589
36 | C16A G27A | 0.36
37 | C16A G34C | 1.44
38 | C16A G42U | 0.276
39 | C16A G54A | 0.388
40 | C16A G56A | 0.0316
41 | C16A G57C | 0.127
42 | C16A G68C | 0.176
43 | C16A G68U | 0.181
44 | C16A G69A | 0.308
45 | C16A U33C | 0.2
46 | C16A U58A | 0.597
47 | C16A U67A | 0.246
48 | C16A U67C | 0.24

Row | Variant | self-cleavage
49 | C16A U70G | 0.461
50 | C16G A23C | 0.763
51 | C16G A24C | 0.688
52 | C16G A24U | 0.69
53 | C16G A26C | 0.388
54 | C16G A26G | 0.766
55 | C16G A28C | 0.289
56 | C16G A30C | 0.177
57 | C16G A30G | 0.0703
58 | C16G A31G | 0.431
59 | C16G A36C | 0.399
60 | C16G A36G | 1.06
61 | C16G A39G | 0.288
62 | C16G A39U | 0.355
63 | C16G A41G | 0.593
64 | C16G A41U | 1.35
65 | C16G A47C | 0.293
66 | C16G A49U | 0.221
67 | C16G A59G | 0.17
68 | C16G A71U | 0.552
69 | C16G C18A | 1.03
70 | C16G C37A | 0.244
71 | C16G C46U | 0.0715
72 | C16G C48A | 0.0451

Row | Variant | self-cleavage
73 | C16G C48G | 0.19
74 | C16G C65A | 0.976
75 | C16G C65U | 0.167
76 | C16G C66U | 0.422
77 | C16G G17A | 0.894
78 | C16G G17C | 0.717
79 | C16G G19A | 0.646
80 | C16G G25C | 0.302
81 | C16G G25U | 0.547
82 | C16G G27A | 0.37
83 | C16G G27C | 0.222
84 | C16G G27U | 0.106
85 | C16G G29C | 0.141
86 | C16G G32U | 0.18
87 | C16G G34A | 0.883
88 | C16G G34U | 1.34
89 | C16G G51A | 0.798
90 | C16G G56A | 0.073
91 | C16G G57C | 0.108
92 | C16G U20C | 0.868
93 | C16G U52C | 0.718
94 | C16G U52G | 0.443
95 | C16G U53C | 0.949
96 | C16G U55C | 0.239

Row | Variant | self-cleavage
97 | C16G U58C | 1.06
98 | C16G U60A | 0.62
99 | C16G U60C | 1.06
100 | C16G U62A | 0.168
101 | C16G U62G | 0.181
102 | C16G U63C | 0.204
103 | C16G U70G | 0.508
104 | C16U A22G | 1
105 | C16U A22U | 0.972
106 | C16U A23C | 1.03
107 | C16U A23U | 0.992
108 | C16U A26C | 0.839
109 | C16U A28G | 1.32
110 | C16U A28U | 0.723
111 | C16U A30C | 0.0996
112 | C16U A31G | 0.742
113 | C16U A31U | 0.211
114 | C16U A35U | 0.916
115 | C16U A39C | 0.641
116 | C16U A39U | 0.312
117 | C16U A43G | 0.0631
118 | C16U A43U | 0.134
119 | C16U A45G | 0.135
120 | C16U A45U | 0.128

Row | Variant | self-cleavage
121 | C16U A47C | 0.567
122 | C16U A47G | 0.16
123 | C16U A49U | 0.281
124 | C16U A59C | 0.17
125 | C16U A59G | 0.109
126 | C16U A61C | 0.254
127 | C16U A64U | 0.162
128 | C16U A71C | 1.41
129 | C16U C38G | 0.206
130 | C16U C38U | 0.443
131 | C16U C48G | 0.108
132 | C16U C48U | 0.179
133 | C16U G17A | 1.19
134 | C16U G19C | 0.867
135 | C16U G25A | 0.668
136 | C16U G27C | 0.202
137 | C16U G29C | 0.1
138 | C16U G40A | 0.276
139 | C16U G40C | 0.11
140 | C16U G51A | 1.06
141 | C16U G56A | 0.208
142 | C16U G57A | 0.272
143 | C16U G68A | 0.283
144 | C16U G69C | 0.396

Row | Variant | self-cleavage
145 | C16U U20G | 1.01
146 | C16U U52G | 0.761
147 | C16U U60C | 1.26
148 | C16U U62C | 0.384
149 | C16U U62G | 0.107
150 | C16U U67A | 0.325
151 | C16U U70G | 0.722
152 | G17A A22C | 0.866
153 | G17A A22G | 1.12
154 | G17A A22U | 0.892
155 | G17A A23C | 0.987
156 | G17A A23U | 0.892
157 | G17A A26U | 0.768
158 | G17A A30C | 0.231
159 | G17A A31G | 0.694
160 | G17A A31U | 0.105
161 | G17A A35C | 0.945
162 | G17A A35G | 1.2
163 | G17A A39U | 0.44
164 | G17A A43G | 0.0835
165 | G17A A44C | 0.119
166 | G17A A44G | 0.233
167 | G17A A61G | 0.107
